Test results published in patent publication US20140087995A1 (published 2014).
Numbered stars: 1 amine (or outer) side, 2 acyl side, 3 side chain; on linkers, the order of the positions; unused ones are H or OH. Bridge positions count the residues as written; N and C are the ends. Side chains are listed from the residue outwards. Ends that are not written are not given here. * marks the point of attachment. C20 diacid = O=C(O)CCCCCCCCCCCCCCCCCCC(=O)*; γGlu = O=C(O)[C@H](CCC(=O)[*:2])N[*:1]

T1: human calcitonin receptor (human, UniProt P30988 25-474)
T1 sequence (looked up): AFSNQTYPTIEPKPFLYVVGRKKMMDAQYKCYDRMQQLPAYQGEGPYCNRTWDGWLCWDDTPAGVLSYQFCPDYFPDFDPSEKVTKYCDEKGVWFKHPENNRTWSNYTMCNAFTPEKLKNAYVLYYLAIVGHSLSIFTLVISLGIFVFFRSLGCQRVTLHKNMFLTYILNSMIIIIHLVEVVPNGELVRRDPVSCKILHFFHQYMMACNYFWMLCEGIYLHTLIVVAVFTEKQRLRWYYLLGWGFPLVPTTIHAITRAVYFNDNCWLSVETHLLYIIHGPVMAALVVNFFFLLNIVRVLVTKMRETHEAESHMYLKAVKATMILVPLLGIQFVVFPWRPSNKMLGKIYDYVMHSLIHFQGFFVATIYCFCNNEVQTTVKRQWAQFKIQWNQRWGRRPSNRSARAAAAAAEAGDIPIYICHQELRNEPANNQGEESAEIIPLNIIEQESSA

T2: human amylin receptor (amylin 3(a) receptor: human calcitonin receptor plus RAMP-3) (human, UniProt P30988 25-474; O60896 24-148)
T2 sequence (looked up) 1: T1 sequence (looked up)
T2 sequence (looked up) 2: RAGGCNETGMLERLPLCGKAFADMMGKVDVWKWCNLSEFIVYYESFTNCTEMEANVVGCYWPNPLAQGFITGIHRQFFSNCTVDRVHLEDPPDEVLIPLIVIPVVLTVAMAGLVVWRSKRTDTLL

B1: N^ε1-[(4S)-4-carboxy-4-(19-carboxynonadecanoylamino)butanoyl]-[Glu14,Arg17,Pro21,Pro27,His34,Glu35]-h-amylin (peptide)
peptide: K([γGlu-C20 diacid])CNTATCATQRLAEFLRHSSPNFGAIPSSTNVGHETY-NH2
modifications: disulfide 2-7; N-terminus assumed
SMILES: CC[C@H](C)[C@H](NC(=O)[C@H](C)NC(=O)CNC(=O)[C@H](Cc1ccccc1)NC(=O)[C@H](CC(N)=O)NC(=O)[C@@H]1CCCN1C(=O)[C@H](CO)NC(=O)[C@H](CO)NC(=O)[C@H](Cc1c[nH]cn1)NC(=O)[C@H](CCCNC(=N)N)NC(=O)[C@H](CC(C)C)NC(=O)[C@H](Cc1ccccc1)NC(=O)[C@H](CCC(=O)O)NC(=O)[C@H](C)NC(=O)[C@H](CC(C)C)NC(=O)[C@H](CCCNC(=N)N)NC(=O)[C@H](CCC(N)=O)NC(=O)[C@@H](NC(=O)[C@H](C)NC(=O)[C@@H]1CSSC[C@H](NC(=O)[C@@H](N)CCCCNC(=O)CC[C@H](NC(=O)CCCCCCCCCCCCCCCCCCC(=O)O)C(=O)O)C(=O)N[C@@H](CC(N)=O)C(=O)N[C@@H]([C@@H](C)O)C(=O)N[C@@H](C)C(=O)N[C@@H]([C@@H](C)O)C(=O)N1)[C@@H](C)O)C(=O)N1CCC[C@H]1C(=O)N[C@@H](CO)C(=O)N[C@@H](CO)C(=O)N[C@H](C(=O)N[C@@H](CC(N)=O)C(=O)N[C@H](C(=O)NCC(=O)N[C@@H](Cc1c[nH]cn1)C(=O)N[C@@H](CCC(=O)O)C(=O)N[C@H](C(=O)N[C@@H](Cc1ccc(O)cc1)C(N)=O)[C@@H](C)O)C(C)C)[C@@H](C)O
notes: also called compound 107
B2: N^ε1-[(4S)-4-carboxy-4-(19-carboxynonadecanoylamino)butanoyl]-[Glu14,Arg17,Pro21,Pro27,His35]-h-amylin (peptide)
peptide: K([γGlu-C20 diacid])CNTATCATQRLAEFLRHSSPNFGAIPSSTNVGSHTY-NH2
modifications: disulfide 2-7; N-terminus assumed
SMILES: CC[C@H](C)[C@H](NC(=O)[C@H](C)NC(=O)CNC(=O)[C@H](Cc1ccccc1)NC(=O)[C@H](CC(N)=O)NC(=O)[C@@H]1CCCN1C(=O)[C@H](CO)NC(=O)[C@H](CO)NC(=O)[C@H](Cc1c[nH]cn1)NC(=O)[C@H](CCCNC(=N)N)NC(=O)[C@H](CC(C)C)NC(=O)[C@H](Cc1ccccc1)NC(=O)[C@H](CCC(=O)O)NC(=O)[C@H](C)NC(=O)[C@H](CC(C)C)NC(=O)[C@H](CCCNC(=N)N)NC(=O)[C@H](CCC(N)=O)NC(=O)[C@@H](NC(=O)[C@H](C)NC(=O)[C@@H]1CSSC[C@H](NC(=O)[C@@H](N)CCCCNC(=O)CC[C@H](NC(=O)CCCCCCCCCCCCCCCCCCC(=O)O)C(=O)O)C(=O)N[C@@H](CC(N)=O)C(=O)N[C@@H]([C@@H](C)O)C(=O)N[C@@H](C)C(=O)N[C@@H]([C@@H](C)O)C(=O)N1)[C@@H](C)O)C(=O)N1CCC[C@H]1C(=O)N[C@@H](CO)C(=O)N[C@@H](CO)C(=O)N[C@H](C(=O)N[C@@H](CC(N)=O)C(=O)N[C@H](C(=O)NCC(=O)N[C@@H](CO)C(=O)N[C@@H](Cc1c[nH]cn1)C(=O)N[C@H](C(=O)N[C@@H](Cc1ccc(O)cc1)C(N)=O)[C@@H](C)O)C(C)C)[C@@H](C)O
B3: N^ε1-[(4S)-4-carboxy-4-(19-carboxynonadecanoylamino)butanoyl]-[Glu14,Arg17,Pro21,Pro27,Pro34,Glu35]-h-amylin (peptide)
peptide: K([γGlu-C20 diacid])CNTATCATQRLAEFLRHSSPNFGAIPSSTNVGPETY-NH2
modifications: disulfide 2-7; N-terminus assumed
SMILES: CC[C@H](C)[C@H](NC(=O)[C@H](C)NC(=O)CNC(=O)[C@H](Cc1ccccc1)NC(=O)[C@H](CC(N)=O)NC(=O)[C@@H]1CCCN1C(=O)[C@H](CO)NC(=O)[C@H](CO)NC(=O)[C@H](Cc1c[nH]cn1)NC(=O)[C@H](CCCNC(=N)N)NC(=O)[C@H](CC(C)C)NC(=O)[C@H](Cc1ccccc1)NC(=O)[C@H](CCC(=O)O)NC(=O)[C@H](C)NC(=O)[C@H](CC(C)C)NC(=O)[C@H](CCCNC(=N)N)NC(=O)[C@H](CCC(N)=O)NC(=O)[C@@H](NC(=O)[C@H](C)NC(=O)[C@@H]1CSSC[C@H](NC(=O)[C@@H](N)CCCCNC(=O)CC[C@H](NC(=O)CCCCCCCCCCCCCCCCCCC(=O)O)C(=O)O)C(=O)N[C@@H](CC(N)=O)C(=O)N[C@@H]([C@@H](C)O)C(=O)N[C@@H](C)C(=O)N[C@@H]([C@@H](C)O)C(=O)N1)[C@@H](C)O)C(=O)N1CCC[C@H]1C(=O)N[C@@H](CO)C(=O)N[C@@H](CO)C(=O)N[C@H](C(=O)N[C@@H](CC(N)=O)C(=O)N[C@H](C(=O)NCC(=O)N1CCC[C@H]1C(=O)N[C@@H](CCC(=O)O)C(=O)N[C@H](C(=O)N[C@@H](Cc1ccc(O)cc1)C(N)=O)[C@@H](C)O)C(C)C)[C@@H](C)O
B4: N^ε1-[(4S)-4-carboxy-4-(19-carboxynonadecanoylamino)butanoyl]-[Glu14,Arg17,Pro21,Pro27,Pro34,His35]-h-amylin (peptide)
peptide: K([γGlu-C20 diacid])CNTATCATQRLAEFLRHSSPNFGAIPSSTNVGPHTY-NH2
modifications: disulfide 2-7
B5: N^ε1-[(4S)-4-carboxy-4-(19-carboxynonadecanoylamino)butanoyl]-[His14,Arg17,Pro21,Pro27,His35]-h-amylin (peptide)
peptide: K([γGlu-C20 diacid])CNTATCATQRLAHFLRHSSPNFGAIPSSTNVGSHTY-NH2
modifications: disulfide 2-7; N-terminus assumed
SMILES: CC[C@H](C)[C@H](NC(=O)[C@H](C)NC(=O)CNC(=O)[C@H](Cc1ccccc1)NC(=O)[C@H](CC(N)=O)NC(=O)[C@@H]1CCCN1C(=O)[C@H](CO)NC(=O)[C@H](CO)NC(=O)[C@H](Cc1c[nH]cn1)NC(=O)[C@H](CCCNC(=N)N)NC(=O)[C@H](CC(C)C)NC(=O)[C@H](Cc1ccccc1)NC(=O)[C@H](Cc1c[nH]cn1)NC(=O)[C@H](C)NC(=O)[C@H](CC(C)C)NC(=O)[C@H](CCCNC(=N)N)NC(=O)[C@H](CCC(N)=O)NC(=O)[C@@H](NC(=O)[C@H](C)NC(=O)[C@@H]1CSSC[C@H](NC(=O)[C@@H](N)CCCCNC(=O)CC[C@H](NC(=O)CCCCCCCCCCCCCCCCCCC(=O)O)C(=O)O)C(=O)N[C@@H](CC(N)=O)C(=O)N[C@@H]([C@@H](C)O)C(=O)N[C@@H](C)C(=O)N[C@@H]([C@@H](C)O)C(=O)N1)[C@@H](C)O)C(=O)N1CCC[C@H]1C(=O)N[C@@H](CO)C(=O)N[C@@H](CO)C(=O)N[C@H](C(=O)N[C@@H](CC(N)=O)C(=O)N[C@H](C(=O)NCC(=O)N[C@@H](CO)C(=O)N[C@@H](Cc1c[nH]cn1)C(=O)N[C@H](C(=O)N[C@@H](Cc1ccc(O)cc1)C(N)=O)[C@@H](C)O)C(C)C)[C@@H](C)O
notes: also called compound 66
B6: N^ε1-[(4S)-4-carboxy-4-[[(4S)-4-carboxy-4-(19-carboxynonadecanoylamino)butanoyl]amino]butanoyl]-[Asp14,Arg17,Pro21,Pro27,Pro34,Glu35]-h-amylin (peptide)
peptide: K([γGlu-γGlu-C20 diacid])CNTATCATQRLADFLRHSSPNFGAIPSSTNVGPETY-NH2
modifications: disulfide 2-7
B7: N^ε1-[(4S)-4-carboxy-4-[[(4S)-4-carboxy-4-(19-carboxynonadecanoylamino)butanoyl]amino]butanoyl]-[Glu14,Arg17,Pro21,Pro27,Arg34,Glu35]-h-amylin (peptide)
peptide: K([γGlu-γGlu-C20 diacid])CNTATCATQRLAEFLRHSSPNFGAIPSSTNVGRETY-NH2
modifications: disulfide 2-7; N-terminus assumed
SMILES: CC[C@H](C)[C@H](NC(=O)[C@H](C)NC(=O)CNC(=O)[C@H](Cc1ccccc1)NC(=O)[C@H](CC(N)=O)NC(=O)[C@@H]1CCCN1C(=O)[C@H](CO)NC(=O)[C@H](CO)NC(=O)[C@H](Cc1c[nH]cn1)NC(=O)[C@H](CCCNC(=N)N)NC(=O)[C@H](CC(C)C)NC(=O)[C@H](Cc1ccccc1)NC(=O)[C@H](CCC(=O)O)NC(=O)[C@H](C)NC(=O)[C@H](CC(C)C)NC(=O)[C@H](CCCNC(=N)N)NC(=O)[C@H](CCC(N)=O)NC(=O)[C@@H](NC(=O)[C@H](C)NC(=O)[C@@H]1CSSC[C@H](NC(=O)[C@@H](N)CCCCNC(=O)CC[C@H](NC(=O)CC[C@H](NC(=O)CCCCCCCCCCCCCCCCCCC(=O)O)C(=O)O)C(=O)O)C(=O)N[C@@H](CC(N)=O)C(=O)N[C@@H]([C@@H](C)O)C(=O)N[C@@H](C)C(=O)N[C@@H]([C@@H](C)O)C(=O)N1)[C@@H](C)O)C(=O)N1CCC[C@H]1C(=O)N[C@@H](CO)C(=O)N[C@@H](CO)C(=O)N[C@H](C(=O)N[C@@H](CC(N)=O)C(=O)N[C@H](C(=O)NCC(=O)N[C@@H](CCCNC(=N)N)C(=O)N[C@@H](CCC(=O)O)C(=O)N[C@H](C(=O)N[C@@H](Cc1ccc(O)cc1)C(N)=O)[C@@H](C)O)C(C)C)[C@@H](C)O

The binders below were run against T1, human calcitonin receptor (assay: cell-based or functional assay).

Binder | hCTR funct. EC50 (pM)
B1 | 2540 pM
B2 | 5580 pM
B3 | 841 pM
B4 | 1450 pM
B5 | 542 pM
B6 | 843 pM
B7 | 7430 pM

The binders below were run against T2, human amylin receptor (amylin 3(a) …) (assay: cell-based or functional assay).

Binder | Ratio hCT/hAmylin funct. | hAmylin-R funct. EC50 (pM)
B1 | 6.3 | 405 pM
B2 |  | 425 pM
B3 | 5.2 | 161 pM
B4 |  | 101 pM
B5 | 20.1 | 27 pM
B6 | 5.3 | 159 pM
B7 |  | 703 pM

Each binder was assayed against T2, human amylin receptor (amylin 3(a) …) (assay: SPA competition binding, displacement of 125I-rat amylin, membranes of BHK amylin 3(a)/CRE-luc cells).
Outline: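 Cell membranes were prepared by homogenisation in Na-HEPES/EDTA buffer, pH 7.4, and stored at −80° C. They were then coupled to SPA beads at 35 ng/μL final and exposed to compounds in assay buffer containing CaCl2, MgCl₂, OA and Tween20. After 120 min at 25° C, plates were counted and IC₅₀ derived.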

Binder | IC50
B1 | 0.387 nM
B2 | 0.992 nM
B3 | 0.14 nM
B4 | 0.179 nM
B5 | 0.396 nM
B6 | 0.172 nM
B7 | 0.957 nM
